According to the supplement of paper PMC7877785:
± gives the uncertainty stated by the source.

Assay: self-splicing fitness, log relative to wild type (ln ratio); higher = more splicing; Tetrahymena group I intron in knt gene, E. coli kanamycin selection, DiMSum; sequences stand for … in CUCUCU…GGAGGGAAAAGUUAUCAGGCAUGCACCUGGUAGCUAGUCUUUAAACCAAUAGAUUGCAUCGGUUUAAAAGGCAAGACCGUCAAAUUGCGGGAAAGGGGUCAACAGCCGUUCAGUACCAAGUCUCAGGGGAAACUUUGAGAUGGCCUUGCAAAGGGUAUGGUAAUAAGCUGACGGACAUGGUCCUAACCACGCAGCCAAGUCCUAAGUCAACAGAUCUUCUGUUGAUAUGGAUGCAGUUCACAGACUAAAUGUCGGUCGGGGAAGAUGUAUUCUUCUCAUAAGAUAUAGUCGGACCUCUCCUUAAUGGGAGCUAGCGGAUGAAGUGAUGCAACACUGGAGCCGCUGGGAACUAAUUUGUAUGCGAAAGUAUAUUGAUUAGUUUUGGAGUACUCGUGGUCG
In short: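 DiMSum derived fitness as the error-weighted combination of fold changes across replicates, kanamycin versus no kanamycin, normalised to wild type. E. coli BL21(DE3) held the library, which randomised all eight P1ex-region intron nucleotides within the knt kanamycin-resistance gene on pET-22b(+). Six replicate transformations grew overnight at 37°C or 30°C on LB agar with or without 25 μg/mL kanamycin, also containing 100 μg/mL carbenicillin, 50 μM IPTG and 0.2% rhamnose, and pooled colonies were amplicon-sequenced on an Illumina HiSeq 2500.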

Sequence | self-splicing fitness (ln) (30 °C) | self-splicing fitness (ln) (37 °C)
AGCUAGCAAUAUUACGGCAC | -1.75 ± 0.14 | -0.45 ± 0.16
CACAAGCAAUAUUACGAUUA | -2.43 ± 0.13 | -0.984 ± 0.12
CUGUAGCAAUAUUACGGCGG | -2.82 ± 0.27 | -1.93 ± 0.32
CCCGAGCAAUAUUACGGCUA | -3.46 ± 0.29 | -3.2 ± 0.32
GUCCAGCAAUAUUACGUAAG | -0.607 ± 0.071 | -0.277 ± 0.11
GACCAGCAAUAUUACGCGGC | -3 ± 0.25 | -2.3 ± 0.29
UGUAAGCAAUAUUACGGAGC | -2.11 ± 0.33 | –
UGAUAGCAAUAUUACGCUUC | – | -2.45 ± 0.35
CAUUAGCAAUAUUACGUCUG | -0.197 ± 0.062 | 0.00612 ± 0.072
AGUAAGCAAUAUUACGACUA | -0.283 ± 0.13 | -0.43 ± 0.13
GGCCAGCAAUAUUACGCCCU | -1.37 ± 0.16 | -0.726 ± 0.15
CACAAGCAAUAUUACGGGGU | -3.61 ± 0.11 | -3.18 ± 0.13
CCCAAGCAAUAUUACGGCGC | – | -2.73 ± 0.25
UGUGAGCAAUAUUACGGGAU | -4.32 ± 0.41 | -2.17 ± 0.38
CAGGAGCAAUAUUACGCCCU | – | -1.65 ± 0.32
GUUCAGCAAUAUUACGACUG | -3.57 ± 0.28 | -0.988 ± 0.14
CGACAGCAAUAUUACGCCCU | -1.46 ± 0.1 | -0.191 ± 0.11
AACGAGCAAUAUUACGCAUA | -2.86 ± 0.38 | -1.26 ± 0.35
GGUAAGCAAUAUUACGCGGG | -3.28 ± 0.17 | -2.02 ± 0.2
ACGGAGCAAUAUUACGUGGA | -3.74 ± 0.37 | -2.26 ± 0.24
ACUCAGCAAUAUUACGGGAG | -1.56 ± 0.051 | -1.11 ± 0.067
ACGAAGCAAUAUUACGCUCC | -2.06 ± 0.42 | -0.416 ± 0.41
UCACAGCAAUAUUACGAAUA | -2.68 ± 0.14 | -1.44 ± 0.11
GGUAAGCAAUAUUACGUCAG | -3.79 ± 0.34 | -2.52 ± 0.39
UGCUAGCAAUAUUACGUUUU | -3.29 ± 0.18 | -1.94 ± 0.14
GUAAAGCAAUAUUACGACCG | -0.799 ± 0.43 | -0.23 ± 0.36

Sequence | self-splicing fitness (ln) (30 °C) | self-splicing fitness (ln) (37 °C)
CCGGAGCAAUAUUACGGCCU | -4.41 ± 0.28 | -3.79 ± 0.23
AGCCAGCAAUAUUACGGGUC | -3.28 ± 0.18 | -2.13 ± 0.2
GUCUAGCAAUAUUACGGGCA | -3.1 ± 0.44 | -1.43 ± 0.21
CCACAGCAAUAUUACGCAUA | -3.46 ± 0.18 | -2.42 ± 0.19
GGAUAGCAAUAUUACGCAAA | -2.14 ± 0.29 | –
AAUAAGCAAUAUUACGCGCG | -0.258 ± 0.11 | 0.0567 ± 0.15
UCAAAGCAAUAUUACGUAGU | -3.63 ± 0.21 | -1.69 ± 0.17
CAUGAGCAAUAUUACGAGGA | -2.72 ± 0.23 | -2.62 ± 0.26
GCUGAGCAAUAUUACGGAGC | -3.49 ± 0.18 | -1.7 ± 0.16
UCUGAGCAAUAUUACGCUCU | -2.96 ± 0.46 | –
UGCGAGCAAUAUUACGUUGG | – | -1.27 ± 0.26
UGCAAGCAAUAUUACGGCAU | -3.05 ± 0.29 | -2.1 ± 0.19
CAAUAGCAAUAUUACGCCGC | -2.12 ± 0.22 | -2.72 ± 0.4
AGUGAGCAAUAUUACGCGAC | -1.74 ± 0.32 | -1.46 ± 0.31
CCAUAGCAAUAUUACGGUUC | -4.2 ± 0.46 | -2.03 ± 0.35
CCUAAGCAAUAUUACGCCGG | -3.61 ± 0.24 | -2.57 ± 0.21
AACUAGCAAUAUUACGGGAU | -1.53 ± 0.079 | -0.855 ± 0.081
CCCAAGCAAUAUUACGACGA | -2.93 ± 0.17 | -1.49 ± 0.14
AAGAAGCAAUAUUACGCGCU | -0.931 ± 0.11 | 0.0502 ± 0.12
AUACAGCAAUAUUACGUUGC | -4.31 ± 0.28 | -2.21 ± 0.35
GCAAAGCAAUAUUACGCUGC | -3.72 ± 0.42 | –
AUGAAGCAAUAUUACGGUAU | -0.945 ± 0.066 | -0.484 ± 0.086
UGGUAGCAAUAUUACGAAAU | -2.72 ± 0.28 | -3.17 ± 0.31
CGAAAGCAAUAUUACGCCGA | -1.99 ± 0.24 | -0.323 ± 0.15
AGUGAGCAAUAUUACGCAUG | -3.22 ± 0.29 | -3.25 ± 0.43
AAAUAGCAAUAUUACGAGCG | -1.75 ± 0.17 | -0.208 ± 0.15

Sequence | self-splicing fitness (ln) (30 °C) | self-splicing fitness (ln) (37 °C)
AAACAGCAAUAUUACGCCUA | -1.13 ± 0.086 | -0.0496 ± 0.075
GUUAAGCAAUAUUACGCCCU | -0.813 ± 0.14 | -0.242 ± 0.11
AACCAGCAAUAUUACGUACC | -0.685 ± 0.08 | 0.0338 ± 0.11
GUCCAGCAAUAUUACGUAUG | -2.76 ± 0.1 | -1.06 ± 0.11
CGCCAGCAAUAUUACGAACU | – | 0.274 ± 0.25
UCAUAGCAAUAUUACGACGG | -0.375 ± 0.11 | -0.184 ± 0.13
CUCCAGCAAUAUUACGAUUU | -3.75 ± 0.2 | -2.08 ± 0.15
AUUAAGCAAUAUUACGGCAC | -1 ± 0.086 | -0.297 ± 0.11
UAAAAGCAAUAUUACGGUGG | -2.08 ± 0.088 | -1.43 ± 0.089
ACAUAGCAAUAUUACGGGAA | -2.36 ± 0.11 | -1.7 ± 0.13
UGGGAGCAAUAUUACGAAAU | -1.47 ± 0.19 | –
UCUAAGCAAUAUUACGUAUG | -1.95 ± 0.089 | -1.6 ± 0.11
CGAAAGCAAUAUUACGGAAG | -0.208 ± 0.097 | -0.546 ± 0.11
AAGCAGCAAUAUUACGUUCA | -0.676 ± 0.056 | 0.0201 ± 0.064
ACGAAGCAAUAUUACGAAAA | -3.5 ± 0.43 | -2.78 ± 0.43
ACACAGCAAUAUUACGUGAA | -1.84 ± 0.055 | -1.11 ± 0.079
AUGCAGCAAUAUUACGUGCA | -2.07 ± 0.1 | -0.922 ± 0.1
UUGUAGCAAUAUUACGUCCU | -1.48 ± 0.15 | -0.583 ± 0.17
ACGCAGCAAUAUUACGCCAA | -3.3 ± 0.2 | -1.75 ± 0.17
GGAAAGCAAUAUUACGUGAC | -2.97 ± 0.19 | -1.94 ± 0.24
UGACAGCAAUAUUACGGUCU | -1.58 ± 0.065 | -0.946 ± 0.072
UAUUAGCAAUAUUACGCCAC | – | -0.751 ± 0.48
GCGUAGCAAUAUUACGCAGG | -3.66 ± 0.47 | -3.54 ± 0.33
GCCUAGCAAUAUUACGGUCU | -1.12 ± 0.067 | -1.08 ± 0.078
AUGAAGCAAUAUUACGAGAC | -2.73 ± 0.43 | -1.28 ± 0.47
AAGGAGCAAUAUUACGAAGA | -3.41 ± 0.29 | -3.13 ± 0.37
